The record followed here is patent EP1638605B1 (Raptor Pharmaceutical, Inc., dated 2014).

In experiment [1] the target is mLRP/LRPTmMegT mini-receptor (fourth ligand binding and transmembrane domains of LRP1 with the C-terminal cytoplasmic tail of megalin) on MDCK cells (UniProt Q07954). Kind of experiment: cell-based or functional assay.
The target of experiment [2] is T1, recombinant human alpha-L-iduronidase (Aldurazyme) (human, UniProt P35475 27-653, limits assumed).
T1 construct: also called rhIDU; Recombinant human IDU
T1 sequence (looked up): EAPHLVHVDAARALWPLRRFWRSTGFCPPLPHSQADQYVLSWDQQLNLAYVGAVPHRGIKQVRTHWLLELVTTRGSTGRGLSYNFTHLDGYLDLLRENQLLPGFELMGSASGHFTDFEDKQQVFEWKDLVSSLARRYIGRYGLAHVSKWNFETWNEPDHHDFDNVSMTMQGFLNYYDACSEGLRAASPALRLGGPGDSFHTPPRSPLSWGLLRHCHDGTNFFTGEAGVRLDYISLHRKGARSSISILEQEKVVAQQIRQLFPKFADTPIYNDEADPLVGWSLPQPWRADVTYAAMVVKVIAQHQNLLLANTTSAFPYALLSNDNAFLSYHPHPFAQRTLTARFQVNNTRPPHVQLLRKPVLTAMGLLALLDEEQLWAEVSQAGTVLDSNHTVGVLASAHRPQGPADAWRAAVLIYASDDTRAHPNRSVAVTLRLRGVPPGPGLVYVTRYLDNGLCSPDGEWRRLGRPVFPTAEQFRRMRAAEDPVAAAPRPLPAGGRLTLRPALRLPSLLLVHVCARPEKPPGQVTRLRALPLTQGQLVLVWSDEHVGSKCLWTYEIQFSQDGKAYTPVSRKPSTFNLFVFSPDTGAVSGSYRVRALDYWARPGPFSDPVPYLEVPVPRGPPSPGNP
Briefly: ligand blot, sLRP2 (1 µg/well) on membrane, antibody detection.

mLRP/LRPTmMegT mini-receptor (fourth ligand binding and transmembrane domains of LRP1 with the C-terminal cytoplasmic tail of megalin) on MDCK cells, sequence (Q07954 3293-4444): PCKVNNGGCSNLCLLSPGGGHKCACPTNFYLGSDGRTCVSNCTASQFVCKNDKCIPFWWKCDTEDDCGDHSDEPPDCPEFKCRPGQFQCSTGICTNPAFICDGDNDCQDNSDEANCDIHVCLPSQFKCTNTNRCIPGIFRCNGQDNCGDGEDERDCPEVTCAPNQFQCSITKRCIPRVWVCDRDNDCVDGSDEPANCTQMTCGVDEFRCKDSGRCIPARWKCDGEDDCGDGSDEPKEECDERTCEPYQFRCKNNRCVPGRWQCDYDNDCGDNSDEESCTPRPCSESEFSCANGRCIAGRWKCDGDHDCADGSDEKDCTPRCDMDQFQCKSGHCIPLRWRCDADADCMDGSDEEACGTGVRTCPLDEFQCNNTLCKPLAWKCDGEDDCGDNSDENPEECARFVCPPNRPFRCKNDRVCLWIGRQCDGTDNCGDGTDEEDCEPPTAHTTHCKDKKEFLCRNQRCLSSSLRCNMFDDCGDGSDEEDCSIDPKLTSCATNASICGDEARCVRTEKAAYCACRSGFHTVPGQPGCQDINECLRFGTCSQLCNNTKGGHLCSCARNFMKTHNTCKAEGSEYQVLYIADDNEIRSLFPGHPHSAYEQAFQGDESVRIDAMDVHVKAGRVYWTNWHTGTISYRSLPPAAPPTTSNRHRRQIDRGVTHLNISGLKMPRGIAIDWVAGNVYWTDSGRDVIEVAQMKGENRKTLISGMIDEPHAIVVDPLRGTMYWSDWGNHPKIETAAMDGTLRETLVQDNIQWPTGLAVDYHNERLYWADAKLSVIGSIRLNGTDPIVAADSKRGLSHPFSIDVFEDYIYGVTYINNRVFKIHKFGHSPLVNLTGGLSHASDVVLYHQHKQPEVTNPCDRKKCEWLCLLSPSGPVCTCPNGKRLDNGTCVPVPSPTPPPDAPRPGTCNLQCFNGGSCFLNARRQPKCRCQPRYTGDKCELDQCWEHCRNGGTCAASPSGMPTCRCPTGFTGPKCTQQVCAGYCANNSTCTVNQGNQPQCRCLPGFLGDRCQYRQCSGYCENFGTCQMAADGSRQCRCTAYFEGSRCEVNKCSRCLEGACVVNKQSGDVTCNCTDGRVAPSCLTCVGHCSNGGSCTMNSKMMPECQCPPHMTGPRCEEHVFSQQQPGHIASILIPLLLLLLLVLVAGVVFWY

Take “receptor-associated protein (RAP) (ligand)”: in experiment [1], the apical-to-basolateral permeability coefficient of 125I-RAP across MEGt-transfected MDCK monolayers with excess unlabeled RAP at 2 µg/ml came out at 6.3 ×10⁻⁶ cm/s; the apical-to-basolateral permeability coefficient of 125I-RAP across MEGt-transfected MDCK monolayers, 60 min worked out at 18.1 ×10⁻⁶ cm/s; the ratio of apical-to-basolateral to basolateral-to-apical permeability coefficient of 125I-RAP in MEGt-transfected MDCK cells stood at 460 fold.

B1: sLRP2, the entire second ligand-binding domain of human LRP1 (recombinant) (receptor, UniProt Q07954 806-1183, looked up)
chain: KCRVNNGGCSSLCLATPGSRQCACAEDQVLDADGVTCLANPSYVPPPQCQPGEFACANSRCIQERWKCDGDNDCLDNSDEAPALCHQHTCPSDRFKCENNRCIPNRWLCDGDNDCGNSEDESNATCSARTCPPNQFSCASGRCIPISWTCDLDDDCGDRSDESASCAYPTCFPLTQFTCNNGRCININWRCDNDNDCGDNSDEAGCSHSCSSTQFKCNSGRCIPEHWTCDGDNDCGDYSDETHANCTNQATRPPGGCHTDEFQCRLDGLCIPLRWRCDGDTDCMDSSDEKSCEGVTHVCDPSVKFGCKDSARCISKAWVCDGDNDCEDNSDEENCESLACRPPSHPCANNTSVCLPPDKLCDGNDDCGDGSDEGELCD
notes: also called immobilized LRP
With B1, in experiment [2], the binding result is listed as “no binding”.
